Results reported in the supplement of paper PMC9170038.

System: MS2 coat protein
Test: apparent KD of MS2 coat protein; designed switch direction (-1 OFF switch, 1 ON switch): 1; higher = weaker reporter binding
Method in brief: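 Designed RNA switches sharing common flanks were transcribed on Illumina chips by stalled E. coli RNA polymerase. They were titrated with SNAP-549-labelled MS2 coat protein, from 0.7 or 1.5 nM doubling to 3 µM, in Tris-HCl pH 7.5 buffer with KCl, MgCl2, BSA, DTT, tRNA and Tween-20. Titrations ran without input, with 200 uM small-molecule ligand, or with an oligonucleotide input. The apparent KD of each design is the median over its clusters, after curve-fitting of normalised cluster fluorescence.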

[1] = input ligand: microRNA oligo, concentration not stated
[2] = Eterna round: R95, input ligand: FMN 200 uM
[3] = Eterna round: R95, input ligand: microRNA oligo, concentration not stated
[4] = Eterna round: R95, input ligand: none

Sequence	apparent KD of MS2 coat protein (input ligand: FMN 200 uM) [nM]	apparent KD of MS2 coat protein [1] [nM]	apparent KD of MS2 coat protein (input ligand: none) [nM]	apparent KD of MS2 coat protein [2] [nM]	apparent KD of MS2 coat protein [3] [nM]	apparent KD of MS2 coat protein [4] [nM]
GCGAAAGCGGUAGGAUAUCUAGGAUAUGGGAAGAGCUAAGCUUGGAAGUCACUUCACCCAGAAGGAGAGAAGGACACCGAAAGG [pwkr ssNG2 2FMN + F9.3] (Eterna round: R96, puzzle: Same State NG 2)	2990	302	390			
GCGAAGAGGUAAGGAUAUUCAUGGCGUAGACAUGAGGAUCACCCAUGUAGGAGACGAAUUAAAAGGGAGAAGGUACCAGGACGC [AK SSNG2-V2-16] (Eterna round: R96, puzzle: Same State NG 2)	50.1	298	286			
GCGAGCGUACUUGCAGACAUGAGGAUCACCCAUGUAACUGGACAGGAUAUGGUACCGUUUCGGUACCAGAAGGGUUUAUAUGUC [JL SSNG3 3.52] (Eterna round: R96, puzzle: Same State NG 3)	40.4	25.7	57.4			
GCGAGCGUACUUGCAGACAUGAGGAUCACCCAUGUAACUGGACAGGAUAUGGUACCGUUUCGGUACCAGAAGGGUUUAUUCAUG [JL SSNG3 3.56] (Eterna round: R96, puzzle: Same State NG 3)	83.4	63.5	56.2			
GCGCAGCUGAGUGAGGAUAUCGGUGGUAAAACAUGAGGAUCACCCAUGUCCGAAGCUCGGACUUCCGAGAAGGCACCCGGCUGCA [Inisusbeor] (puzzle: Same State 2)				11.9	47.4	73.5
GCGCGAAAGAGCGAGGAUAUGCGGCGUAUAACAUGAGGAUCACCCAUGUCCUUCGAAUCUUGUACGCAGAAGGCGCUACAGGCGC [Robot Leg] (puzzle: Same State 2)				154	61	62.2
GCGGAAACUCACAUGAGGAUCACCCAUGUUCCGGAAACGGCACAGGAUAUCUGUCCGAAAAGGUCAGAGAAGGGUGAAAUCCGC [Fiskers NG3ss - 92] (Eterna round: R96, puzzle: Same State NG 3)	282	9.95	54.8			
GCUACCAAUGAAGCCAACAUGAGGAUCACCCAUGUAUGUUGGUAGGAUAUCGUUUGCAAAGCAAACGAGAAGGGCUAAGGUAGC [Mat - Same State NG 3 - JL Mod - D75] (Eterna round: R96, puzzle: Same State NG 3)	62.8	36.8	51			
GCUACCAAUGAAGCCUACAUGAGGAUCACCCAUGUAUGUAGGCAGGAUAUCGAUUGCAAAGCGAUCGAGAAGGGCUUAGGUAGC [Mat - Same State NG 3 - JL Mod - D91] (Eterna round: R96, puzzle: Same State NG 3)	35.9	79.6	95.8			
GCUAGAAAUAAAGCCAACAUGAGGAUCACCCAUGUAUGUUGGCAGGAUAUCGUUUGCUUUGCAAACGAGAAGGGCCAAACUAGC [Mat - Same State NG 3 - JL Mod - D1] (Eterna round: R96, puzzle: Same State NG 3)	57	127	129			
GCUAGGAUAUGACCAGGAUCACCGGUUAGAAGGAGCGAAAGCUAGGAUAUGACCAGGAUCACCGGUUAGAAGGAGCUGUCCUCC [pwkr ssNG3 DX 2xF5 +2xFMN.12] (Eterna round: R96, puzzle: Same State NG 3)	69.1	101	117			
GCUAGUAUUAUUGUCAACAUGAGGAUCACCCAUGUAUGUUGGCAGGAUAUCGUUUGCAAAGCAAACGAGAAGGGCUAAACUAGC [Mat - Same State NG 3 - JL Mod - D10] (Eterna round: R96, puzzle: Same State NG 3)	71.9	105	185			
GCUCGACUGAUGGCCUACAUGAGGAUCACCCAUGUGAUUGGGCAGGAUAUCUAGAUGCAGGAUGUAGAGAAGGGCCAGUCGAGC [SameState NG3 #45] (Eterna round: R96, puzzle: Same State NG 3)	1130	477	503			
GCUCGGCUGAUGGCCUACAUGAGGAUCACCCAUGUGACUGGGCAGGAUAUCUAGAUGCAGGAUGUAGAGAAGGGCCUGCCGAGC [SameState NG3 #42] (Eterna round: R96, puzzle: Same State NG 3)	704	224	458			
GCUCGGCUGAUGGCCUACAUGAGGAUCACCCAUGUGUGUGGGCAGGAUAUCUAGAUUAAGGAUGUAGAGAAGGGCCUGCCGAGC [SameState NG3 #38] (Eterna round: R96, puzzle: Same State NG 3)	2620	340	972			
GCUGCAAUAAACGCCUACAUGAGGAUCACCCAUGUAUGUAGGCAGGAUAUCGUUUGCAAAGCAAACGAGAAGGGCUGUAGUAGC [Mat - Same State NG 3 - JL Mod - D38] (Eterna round: R96, puzzle: Same State NG 3)	52.6	59.8	101			
GCUGCAAUUAACGCCUACAUGAGGAUCACCCAUGUAUGUAGGCAGGAUAUCGUUUGCAAAGCAAACGAGAAGGGCUGUAGUAGC [Mat - Same State NG 3 - JL Mod - D37] (Eterna round: R96, puzzle: Same State NG 3)	65.4	83.4	113			
GCUGCAAUUAACGCCUACAUGAGGAUCACCCAUGUAUGUAGGCAGGAUAUCGUUUGCUUUGCAAACGAGAAGGGCCGUAGUAGC [JL SSNG3 1.12] (Eterna round: R96, puzzle: Same State NG 3)	22.8	37.6	63.1			
GGAAAACAUGAGGAUCACCCAUGUAAUAAUAUGGGAGGAUAUCAGAUUUAAUUUAAUUUAUGAGAAGGCCUAAAGG [Mat - Same State 1 - Mod of Eli - D64] (puzzle: Same State 1)				85	43.2	30.6
GGAAACUUGAGAGGAUAUGUAGAGGAUCACCCUACAGAAGGCUCAUUUGAGAGGAUAUGUAGAGGAUCACCCUACAGAAGGCUC [pwkr ssNG DX.13] (Eterna round: R96, puzzle: Same State NG 1)	29.6	26	72.4			
GGAAAGAGGUAAGGAUAUGCAUGGCUGGGACAUGAGGAUCACCCAUGUUGGAGAAGAAAUCUAGGGUAGAAGGUACAAGGAAGG [AK SSNG2-V2-10] (Eterna round: R96, puzzle: Same State NG 2)	240	220	203			
GGAAGGAGGUCAGGAUAUGAACGGAAGGUACAUGAGGAUCACCCAUGUUACGGAGGAAGGAAACGUUAGAAGGGACAAGGAAGG [AK SSNG2-V2-3] (Eterna round: R96, puzzle: Same State NG 2)	14.8	12.8	18.1			
GGAAUAUGAUGUUACAUGAGGAUCACCCAUGUAGUAAUAACUAAGGAUAUCUGUUAUGAUUAAUAAGAGAAGGUAGGAUCAUAA [AK SSNG3-V2-9] (Eterna round: R96, puzzle: Same State NG 3)	23.6	19	25.8			
GGAAUAUUUACAGGAUAUGAGUUGUAAAGUCGAUCAGAAGGGUAGAUGUCUUACACGGUUUGUUACAUGAGGAUCACCCAUGUU [SameState NG1 #18] (Eterna round: R96, puzzle: Same State NG 1)	66.9	75.6	86.6			
GGACGUCACAUUAACAUGAGGAUCACCCAUGUCAAAAGACAUGAGGAUAUGGAUCCUAAUUGGAUCCAGAAGGCAUGGACGUCC [Fiskers NG3ss - 39] (Eterna round: R96, puzzle: Same State NG 3)		373				
GGACGUCAUCUCACUGAUUAAACAUGAGGAUCACCCAUGUCACAGGAUAUGGAUCCGAUUAGGAUCCAGAAGGGUGUGACGUCC [Fiskers NG3ss - 43] (Eterna round: R96, puzzle: Same State NG 3)	21.4	19.3	24.2			
GGACGUCAUCUCACUGAUUAAACAUGAGGAUCACCCAUGUCAGAGGAUAUGAGUCCGAUUAGGACUCAGAAGGCUGUGACGUCC [Fiskers NG3ss - 46] (Eterna round: R96, puzzle: Same State NG 3)	19.6	9.14	16			
GGAGAGAGAGCGCAGGAUAUUCAAGGAGAAACAUGAGGAUCACCCAUGUGAGAGAGAGAGGAGAGGGAGAAGGGUGAGAGAGAGG [Altered State 2-13 - Jieux - Same State 2] (puzzle: Same State 2)				23.1	30.4	33.6
GGAGCCAAGGCAGGAUAUUCAUAUUAAUAAACAUGAGGAUCACCCAUGUAGGCCAGAAGGCCUUGGGAGAAGGGCCAUGGCUCG [Xeonanis - 13 mod5] (Eterna round: R96, puzzle: Same State NG 2)	21.3	120	196			
